T1: MGME1 (Homo sapiens, UniProt Q9BQP7 21-344)
T1 sequence: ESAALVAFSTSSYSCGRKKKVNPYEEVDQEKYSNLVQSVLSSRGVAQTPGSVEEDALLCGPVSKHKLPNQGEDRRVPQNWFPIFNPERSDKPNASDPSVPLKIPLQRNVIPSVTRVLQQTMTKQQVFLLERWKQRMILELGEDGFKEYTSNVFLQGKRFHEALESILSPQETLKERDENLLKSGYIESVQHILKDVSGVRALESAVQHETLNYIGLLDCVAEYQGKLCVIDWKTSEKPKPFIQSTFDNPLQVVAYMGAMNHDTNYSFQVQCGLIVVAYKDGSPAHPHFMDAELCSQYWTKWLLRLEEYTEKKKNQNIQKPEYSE


Key:
MGME1 [1] = target: T1, MGME1; experiment: fluorescence polarization; 10 mM EDTA; FP: 2 nM FAM-ssDNA, 20 mM Hepes pH 8.0 (at 37 C), 100 mM NaCl, 0.1 mg/ml BSA, 1 mM DTT, 10 mM EDTA, mixed at room temperature, 15 min; EMSA: 1 uM ssDNA, 20 mM Hepes pH 8.0, 100 mM NaCl, 1 mM DTT, 10 mM EDTA, room temperature 15 min, gel 0.35x TBE at 4 C; details: protein: recombinant, tags: His-SUMO tag removed by Ulp1, single strand
MGME1 [2] = target: T1, MGME1; experiment: competition (fluorescence polarization); 10 mM EDTA; 140 nM MGME1 with 2 nM T20(5') preformed; FP: 2 nM FAM-ssDNA, 20 mM Hepes pH 8.0 (at 37 C), 100 mM NaCl, 0.1 mg/ml BSA, 1 mM DTT, 10 mM EDTA, mixed at room temperature, 15 min; EMSA: 1 uM ssDNA, 20 mM Hepes pH 8.0, 100 mM NaCl, 1 mM DTT, 10 mM EDTA, room temperature 15 min, gel 0.35x TBE at 4 C; details: protein: recombinant; tags: His-SUMO tag removed by Ulp1; single strand

Binder | Kd (MGME1 [1]; label: 3'-6FAM) [nM] | Kd (MGME1 [1]; label: 5'-6FAM) [nM] | further results
TTTTTTTTTT (ssDNA, 5'-phosphate) [T10(3')-5'p] | 1600 ± 75 |  | 
TTTTTTTTTT (ssDNA) [T10(3')] | 7500 ± 890 |  | 
TTTTTTTTTT (ssDNA, 5'-phosphate-tetrahydrofuran (abasic) before T10) [T10(3')-5'dSp] | 340 ± 24 |  | 
TTTTTTTTTTTTTTTTTTTT (ssDNA, 5' phosphate linkage of the FAM label) [T20(5')] |  | 240 ± 36 | 
TTTTTTTTTT (ssDNA, 5' phosphate linkage of the FAM label) [T10(5')] |  | 600 ± 150 | 
TTTTTTTTTTTTTTTTTTTT (ssDNA, 5'-phosphate) [T20(3')-5'p] | 180 ± 5 |  | 
TTTTTTTTTTTTTTTTTTTT (ssDNA) [T20 (unlabeled)] |  |  | Kd (MGME1 [2]): 250 ± 33 nM
AAAAAAAAAAAAAAAAAAAA (ssDNA, 5' phosphate linkage of the FAM label) [A20(5')] |  | 1300 ± 170 | 
TTTTTTTTTTTTTTTTTTTT (ssDNA) [T20(3')] | 330 ± 83 |  | 

— publication PMC9460513, “The 5′-phosphate enhances the DNA-binding and exonuclease activities of human mitochondrial genome maintenance exonuclease 1 (MGME1)”
